This is an account of results in article PMC5039624 (Scientific Reports, 2016).

B1: unnamed (parent)
chain 1: SECGKFMWKCKNSNDCCKDLVCSSRWKWCVLASPF
chain 2: RGLSDLGGRVRNIGDVMEHPLVELGVSYAALLSVIVVVVEYTMQLSGEYLVRLYLVDLILVIILWADYAYRAYKSGDPAGYVKKTLYEIPALVPAGLLALIEGHLAGLGLFRLVRLLRFLRILLIISRGSKFLSAIADAADK

The variants in this test derive from B1. Put plainly: pull-down. Also noted: reference not given here. Conditions: with partner chain of the complex shown; His6-tagged VSDK micelles immobilized on nickel-NTA beads; read off a plot.
For the variant chain 2 RGLSDLGGRVRNIGDVMEHPLVELGVSYAALLSVIVVVVEAAMALSGEYLVRLYLVDLILVIILWADYAYRAYKSGDPAGYVKKTLYEIPALVPAGLLALIEGHLAGLGLFRLVRLLRFLRILLIISRGSKFLSAIADAADK [chain 2 Y41A T42A Q44A], the screen value was 51%.
Next, chain 2 RGLSDLGGRVRNIGDVMEHPLVELGVSYAALLSVIVVVVEYTMQLAGEYLVRLYLVDLILVIILWADYAYRAYKSGDPAGYVKKTLYEIPALVPAGLLALIEGHLAGLGLFRLVRLLRFLRILLIISRGSKFLSAIADAADK [chain 2 S46A]: 11%; chain 2 RGLSDLGGRVRNIGDVMEHPLVELGVSYAALLSVIVVVVEATMQLSGEYLVRLYLVDLILVIILWADYAYRAYKSGDPAGYVKKTLYEIPALVPAGLLALIEGHLAGLGLFRLVRLLRFLRILLIISRGSKFLSAIADAADK [chain 2 Y41A]: 8%.
Next, chain 2 RGLSDLGGRVRNIGDVMEHPLVELGVSYAALLSVIVVVVEAAMQLSGEYLVRLYLVDLILVIILWADYAYRAYKSGDPAGYVKKTLYEIPALVPAGLLALIEGHLAGLGLFRLVRLLRFLRILLIISRGSKFLSAIADAADK [chain 2 Y41A T42A]: 19%; chain 2 RGLSDLGGRVRNIGDVMEHPLVELGVSYAALLSVIVVVVEYTMQLSGEYLVRLYLVDLILVIILWADYAYRAYKSGDPAGYVKKTLYEIPALVPAGLLALIEGHLAGLGLFRLVALLRFLRILLIISRGSKFLSAIADAADK [chain 2 R115A]: 7%; chain 2 RGLSDLGGRVRNIGDVMEHPLVELGVSYAALLSVIVVVVEYTMQLSGEYLVRLYLVDLILVIILAADYAYRAYKSGDPAGYVKKTLYEIPALVPAGLLALIEGHLAGLGLFRLVRLLRFLRILLIISRGSKFLSAIADAADK [chain 2 W65A]: -7%.
Next, chain 2 RGLSDLGGRVRNIGDVMEHPLVELGVSYAALLSVIVVVVEYAMQLSGEYLVRLYLVDLILVIILWADYAYRAYKSGDPAGYVKKTLYEIPALVPAGLLALIEGHLAGLGLFRLVRLLRFLRILLIISRGSKFLSAIADAADK [chain 2 T42A]: 6%.
